In the supplement of paper PMC10065799, “High-throughput profiling of sequence recognition by tyrosine kinases and SH2 domains using bacterial peptide display” (eLife, 2023):

target: Hck (UniProt P08631); experiment: phosphorylation enrichment, bacterial display (enrichment ratio); higher = better substrate or ligand; peptides without Tyr show the background
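Further: 11-residue human phosphosite peptides and single-mutation variants displayed on the E. coli surface, counted by deep sequencing, each peptide's frequency after selection divided by its frequency in the unselected input library; frequency after pTyr selection over input frequency; kinase dosed for 20-30% of maximal phosphorylation in three min.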

Sequence of Hck (P08631 whole entry, looked up): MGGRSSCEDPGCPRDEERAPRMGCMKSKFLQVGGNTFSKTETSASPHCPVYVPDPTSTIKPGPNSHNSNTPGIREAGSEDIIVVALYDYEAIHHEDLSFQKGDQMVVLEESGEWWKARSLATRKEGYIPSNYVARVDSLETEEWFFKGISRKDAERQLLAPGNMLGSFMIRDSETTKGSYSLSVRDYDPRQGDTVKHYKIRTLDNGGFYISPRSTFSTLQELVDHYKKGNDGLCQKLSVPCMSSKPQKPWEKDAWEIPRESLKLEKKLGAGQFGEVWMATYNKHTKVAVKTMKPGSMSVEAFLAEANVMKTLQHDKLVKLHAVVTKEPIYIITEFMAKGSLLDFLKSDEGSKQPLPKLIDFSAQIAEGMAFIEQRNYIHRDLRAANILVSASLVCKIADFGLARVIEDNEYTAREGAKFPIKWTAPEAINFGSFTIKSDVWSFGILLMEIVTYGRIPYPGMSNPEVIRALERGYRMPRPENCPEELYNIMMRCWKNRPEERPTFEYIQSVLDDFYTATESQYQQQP

| Sequence | phosphorylation enrichment |
| --- | --- |
| GYKVRYATWSI [FGFR1_Y210] | 0.593 |
| SGPRRYTMAAL [TTR_Y125_I127M] | 0.488 |
| DERQPYAHMNG [IGF1R_Y1346] | 0.427 |
| VATSWYRSPEL [CDKL5_Y177_R175S] | 0.469 |
| DEWFLYKMRDI [CPS1_Y879_K875E] | 0.615 |
| AFHGEYIPTVF [RAC2_Y32_P29H] | 0.412 |
| REENGYNTYAS [FGF10_Y161_I156R] | 1.3 |
| WFISFYPQVIM [CTNS_Y143_S139F] | 0.446 |
| AFQGKYTPSGQ [ALDOA_Y343_C339Y_YF] | 0.266 |
| AKKVFYVNETR [SHH_Y253_I255N] | 0.338 |
| ESTPLYPMLFG [SCLY_Y280_F276S] | 0.503 |
| EFISEHCGEII [EZH2_Y641_Y641H] | 0.602 |
| KELAPYDENRF [RPS19_Y48_W52R] | 0.512 |
| LALTVYADCLA [ABCA4_Y2063_G2059A] | 0.73 |
| ETKENYGKTLK [CHL1_Y291] | 0.498 |
| RHPLDYLRQFP [NARS2_Y138_E137D_YF] | 0.498 |
| LASSEYPVRRR [GALK1_Y236] | 0.514 |

| Sequence | phosphorylation enrichment |
| --- | --- |
| QEIATYRPLLE [KRT14_Y415_R417P] | 0.674 |
| QGLRLYRPHLA [BTK_Y617] | 0.437 |
| HNLDYYKMTTN [FGFR3_Y648_K650M] | 0.607 |
| SVTCTYSAALN [TP53_Y126_P128A] | 0.679 |
| PEVRRCVLPLN [RPE65_Y368_Y368C] | 0.48 |
| LARHMYDKEYY [MET_Y1230_D1228H] | 0.825 |
| RLFARYFQGDL [PDK3_Y337_YF] | 0.723 |
| DRPASYLDKVR [KRT17_Y98_L95P] | 0.432 |
| VRRRSYSAGNA [KANK1_Y324_K321R] | 0.516 |
| ALAAPYVLFPS [CEFIP_Y1332_G1337S_YF] | 0.647 |
| GCCSWYRGWAP [TIMP3_Y195_Y191C] | 0.784 |
| DEEYEYMNRRR [ERBB3_Y1199] | 0.546 |
| EVTQDYGLDPK [FH_Y110_N107T] | 0.574 |
| VVQGIYGYHHH [UFSP2_Y285_Y290H] | 10.7 |
| PVRIAYDRPRG [SUGP2_Y985] | 0.426 |
| LNNIIYRVERA [CUX2_Y1470] | 0.738 |

target: Jak2 (UniProt O60674); experiment: as above
Sequence (O60674 whole entry, looked up): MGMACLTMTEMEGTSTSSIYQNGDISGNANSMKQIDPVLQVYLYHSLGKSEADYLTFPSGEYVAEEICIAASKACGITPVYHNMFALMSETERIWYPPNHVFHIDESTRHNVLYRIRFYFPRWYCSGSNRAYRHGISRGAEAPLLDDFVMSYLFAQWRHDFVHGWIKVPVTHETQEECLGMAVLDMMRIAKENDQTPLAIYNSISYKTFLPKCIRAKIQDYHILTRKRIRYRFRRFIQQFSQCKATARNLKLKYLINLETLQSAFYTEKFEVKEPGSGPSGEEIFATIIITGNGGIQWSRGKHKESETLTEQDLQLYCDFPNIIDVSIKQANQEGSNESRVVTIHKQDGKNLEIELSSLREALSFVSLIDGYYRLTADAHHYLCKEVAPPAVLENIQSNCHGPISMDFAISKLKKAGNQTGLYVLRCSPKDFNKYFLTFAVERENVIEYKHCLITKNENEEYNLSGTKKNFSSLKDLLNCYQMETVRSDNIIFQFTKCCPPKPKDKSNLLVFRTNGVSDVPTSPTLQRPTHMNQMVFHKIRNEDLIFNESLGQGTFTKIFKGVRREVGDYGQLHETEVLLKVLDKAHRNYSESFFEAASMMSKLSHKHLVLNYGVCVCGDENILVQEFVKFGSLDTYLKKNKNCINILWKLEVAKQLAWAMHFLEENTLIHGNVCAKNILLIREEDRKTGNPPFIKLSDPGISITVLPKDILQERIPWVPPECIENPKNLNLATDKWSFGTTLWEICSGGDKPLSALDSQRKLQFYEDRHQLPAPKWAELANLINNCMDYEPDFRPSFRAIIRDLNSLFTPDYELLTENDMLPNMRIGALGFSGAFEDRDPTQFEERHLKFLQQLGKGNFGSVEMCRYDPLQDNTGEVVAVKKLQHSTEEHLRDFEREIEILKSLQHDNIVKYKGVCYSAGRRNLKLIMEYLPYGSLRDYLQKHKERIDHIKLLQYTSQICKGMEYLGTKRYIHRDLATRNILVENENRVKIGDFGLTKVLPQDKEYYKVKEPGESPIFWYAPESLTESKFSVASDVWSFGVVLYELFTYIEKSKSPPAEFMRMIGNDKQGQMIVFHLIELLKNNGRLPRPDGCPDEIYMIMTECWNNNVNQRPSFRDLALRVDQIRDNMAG

| Sequence | phosphorylation enrichment |
| --- | --- |
| GYKVRYATWSI [FGFR1_Y210] | 1.08 |
| SGPRRYTMAAL [TTR_Y125_I127M] | 0.601 |
| DERQPYAHMNG [IGF1R_Y1346] | 0.533 |
| VATSWYRSPEL [CDKL5_Y177_R175S] | 0.548 |
| DEWFLYKMRDI [CPS1_Y879_K875E] | 1.63 |
| AFHGEYIPTVF [RAC2_Y32_P29H] | 0.571 |
| REENGYNTYAS [FGF10_Y161_I156R] | 1.27 |
| WFISFYPQVIM [CTNS_Y143_S139F] | 1.13 |
| AFQGKYTPSGQ [ALDOA_Y343_C339Y_YF] | 0.547 |
| AKKVFYVNETR [SHH_Y253_I255N] | 0.526 |
| ESTPLYPMLFG [SCLY_Y280_F276S] | 1.09 |
| EFISEHCGEII [EZH2_Y641_Y641H] | 1.17 |
| KELAPYDENRF [RPS19_Y48_W52R] | 1.05 |
| LALTVYADCLA [ABCA4_Y2063_G2059A] | 1.53 |
| ETKENYGKTLK [CHL1_Y291] | 0.504 |
| RHPLDYLRQFP [NARS2_Y138_E137D_YF] | 0.78 |
| LASSEYPVRRR [GALK1_Y236] | 0.475 |

| Sequence | phosphorylation enrichment |
| --- | --- |
| QEIATYRPLLE [KRT14_Y415_R417P] | 1.04 |
| QGLRLYRPHLA [BTK_Y617] | 1.15 |
| HNLDYYKMTTN [FGFR3_Y648_K650M] | 11.2 |
| SVTCTYSAALN [TP53_Y126_P128A] | 1.41 |
| PEVRRCVLPLN [RPE65_Y368_Y368C] | 0.927 |
| LARHMYDKEYY [MET_Y1230_D1228H] | 0.883 |
| RLFARYFQGDL [PDK3_Y337_YF] | 0.545 |
| DRPASYLDKVR [KRT17_Y98_L95P] | 0.556 |
| VRRRSYSAGNA [KANK1_Y324_K321R] | 0.471 |
| ALAAPYVLFPS [CEFIP_Y1332_G1337S_YF] | 1.63 |
| GCCSWYRGWAP [TIMP3_Y195_Y191C] | 0.705 |
| DEEYEYMNRRR [ERBB3_Y1199] | 0.93 |
| EVTQDYGLDPK [FH_Y110_N107T] | 1.06 |
| VVQGIYGYHHH [UFSP2_Y285_Y290H] | 0.555 |
| PVRIAYDRPRG [SUGP2_Y985] | 1.44 |
| LNNIIYRVERA [CUX2_Y1470] | 1.22 |

target: MERTK (UniProt Q12866); experiment: as above
Sequence (Q12866 whole entry, looked up): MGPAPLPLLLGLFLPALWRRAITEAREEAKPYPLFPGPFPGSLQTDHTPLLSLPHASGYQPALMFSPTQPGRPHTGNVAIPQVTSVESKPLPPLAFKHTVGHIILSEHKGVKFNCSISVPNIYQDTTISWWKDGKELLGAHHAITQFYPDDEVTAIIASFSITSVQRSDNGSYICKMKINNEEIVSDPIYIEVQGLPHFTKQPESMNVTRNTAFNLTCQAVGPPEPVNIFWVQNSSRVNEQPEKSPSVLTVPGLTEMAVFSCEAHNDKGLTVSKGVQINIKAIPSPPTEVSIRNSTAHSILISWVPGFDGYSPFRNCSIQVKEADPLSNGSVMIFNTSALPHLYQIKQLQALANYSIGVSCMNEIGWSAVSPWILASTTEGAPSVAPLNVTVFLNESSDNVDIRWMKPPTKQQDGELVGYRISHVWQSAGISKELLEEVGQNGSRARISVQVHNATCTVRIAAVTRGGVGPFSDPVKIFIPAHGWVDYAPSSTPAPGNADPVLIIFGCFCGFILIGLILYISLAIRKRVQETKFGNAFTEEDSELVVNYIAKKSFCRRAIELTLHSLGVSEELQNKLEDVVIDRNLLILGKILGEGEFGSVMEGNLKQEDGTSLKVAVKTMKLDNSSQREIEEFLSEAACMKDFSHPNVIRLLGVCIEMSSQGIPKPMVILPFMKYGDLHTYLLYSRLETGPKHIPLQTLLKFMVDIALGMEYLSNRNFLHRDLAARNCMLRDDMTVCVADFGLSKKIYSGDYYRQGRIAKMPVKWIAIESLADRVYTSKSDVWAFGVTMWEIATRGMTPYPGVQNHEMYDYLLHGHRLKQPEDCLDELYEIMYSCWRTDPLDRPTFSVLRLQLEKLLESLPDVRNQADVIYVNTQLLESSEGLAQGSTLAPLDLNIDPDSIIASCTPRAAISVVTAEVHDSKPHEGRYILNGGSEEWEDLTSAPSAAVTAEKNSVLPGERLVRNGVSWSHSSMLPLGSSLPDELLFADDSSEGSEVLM

| Sequence | phosphorylation enrichment |
| --- | --- |
| GYKVRYATWSI [FGFR1_Y210] | 0.657 |
| SGPRRYTMAAL [TTR_Y125_I127M] | 0.44 |
| DERQPYAHMNG [IGF1R_Y1346] | 0.343 |
| VATSWYRSPEL [CDKL5_Y177_R175S] | 0.412 |
| DEWFLYKMRDI [CPS1_Y879_K875E] | 0.4 |
| AFHGEYIPTVF [RAC2_Y32_P29H] | 0.432 |
| REENGYNTYAS [FGF10_Y161_I156R] | 0.568 |
| WFISFYPQVIM [CTNS_Y143_S139F] | 0.315 |
| AFQGKYTPSGQ [ALDOA_Y343_C339Y_YF] | 0.346 |
| AKKVFYVNETR [SHH_Y253_I255N] | 0.363 |
| ESTPLYPMLFG [SCLY_Y280_F276S] | 2.23 |
| EFISEHCGEII [EZH2_Y641_Y641H] | 0.658 |
| KELAPYDENRF [RPS19_Y48_W52R] | 0.5 |
| LALTVYADCLA [ABCA4_Y2063_G2059A] | 0.517 |
| ETKENYGKTLK [CHL1_Y291] | 0.383 |
| RHPLDYLRQFP [NARS2_Y138_E137D_YF] | 0.56 |
| LASSEYPVRRR [GALK1_Y236] | 0.526 |

| Sequence | phosphorylation enrichment |
| --- | --- |
| QEIATYRPLLE [KRT14_Y415_R417P] | 0.504 |
| QGLRLYRPHLA [BTK_Y617] | 0.382 |
| HNLDYYKMTTN [FGFR3_Y648_K650M] | 0.68 |
| SVTCTYSAALN [TP53_Y126_P128A] | 0.62 |
| PEVRRCVLPLN [RPE65_Y368_Y368C] | 0.458 |
| LARHMYDKEYY [MET_Y1230_D1228H] | 0.597 |
| RLFARYFQGDL [PDK3_Y337_YF] | 0.525 |
| DRPASYLDKVR [KRT17_Y98_L95P] | 0.51 |
| VRRRSYSAGNA [KANK1_Y324_K321R] | 0.509 |
| ALAAPYVLFPS [CEFIP_Y1332_G1337S_YF] | 2.01 |
| GCCSWYRGWAP [TIMP3_Y195_Y191C] | 0.459 |
| DEEYEYMNRRR [ERBB3_Y1199] | 0.37 |
| EVTQDYGLDPK [FH_Y110_N107T] | 0.528 |
| VVQGIYGYHHH [UFSP2_Y285_Y290H] | 10.3 |
| PVRIAYDRPRG [SUGP2_Y985] | 0.591 |
| LNNIIYRVERA [CUX2_Y1470] | 0.43 |

test system: c-Abl (mouse); experiment: as above

| Sequence | phosphorylation enrichment |
| --- | --- |
| GYKVRYATWSI [FGFR1_Y210] | 0.969 |
| SGPRRYTMAAL [TTR_Y125_I127M] | 0.555 |
| DERQPYAHMNG [IGF1R_Y1346] | 0.455 |
| VATSWYRSPEL [CDKL5_Y177_R175S] | 0.427 |
| DEWFLYKMRDI [CPS1_Y879_K875E] | 0.935 |
| AFHGEYIPTVF [RAC2_Y32_P29H] | 0.575 |
| REENGYNTYAS [FGF10_Y161_I156R] | 1.25 |
| WFISFYPQVIM [CTNS_Y143_S139F] | 0.758 |
| AFQGKYTPSGQ [ALDOA_Y343_C339Y_YF] | 0.432 |
| AKKVFYVNETR [SHH_Y253_I255N] | 0.459 |
| ESTPLYPMLFG [SCLY_Y280_F276S] | 0.619 |
| EFISEHCGEII [EZH2_Y641_Y641H] | 0.806 |
| KELAPYDENRF [RPS19_Y48_W52R] | 0.983 |
| LALTVYADCLA [ABCA4_Y2063_G2059A] | 1.09 |
| ETKENYGKTLK [CHL1_Y291] | 0.414 |
| RHPLDYLRQFP [NARS2_Y138_E137D_YF] | 0.753 |
| LASSEYPVRRR [GALK1_Y236] | 0.448 |

| Sequence | phosphorylation enrichment |
| --- | --- |
| QEIATYRPLLE [KRT14_Y415_R417P] | 0.922 |
| QGLRLYRPHLA [BTK_Y617] | 0.775 |
| HNLDYYKMTTN [FGFR3_Y648_K650M] | 0.591 |
| SVTCTYSAALN [TP53_Y126_P128A] | 0.947 |
| PEVRRCVLPLN [RPE65_Y368_Y368C] | 0.871 |
| LARHMYDKEYY [MET_Y1230_D1228H] | 0.687 |
| RLFARYFQGDL [PDK3_Y337_YF] | 0.524 |
| DRPASYLDKVR [KRT17_Y98_L95P] | 0.624 |
| VRRRSYSAGNA [KANK1_Y324_K321R] | 0.613 |
| ALAAPYVLFPS [CEFIP_Y1332_G1337S_YF] | 0.682 |
| GCCSWYRGWAP [TIMP3_Y195_Y191C] | 0.59 |
| DEEYEYMNRRR [ERBB3_Y1199] | 0.65 |
| EVTQDYGLDPK [FH_Y110_N107T] | 0.842 |
| VVQGIYGYHHH [UFSP2_Y285_Y290H] | 5.2 |
| PVRIAYDRPRG [SUGP2_Y985] | 0.671 |
| LNNIIYRVERA [CUX2_Y1470] | 0.864 |
